B1: F1*; the commonest letter at each place (parent)
chain: GAGACCGCAACTGAAAAGTTGTTATCACTTGTCGTAAGACACTTTGGATGGGTTGAAGTTCTGCACGTAGAAGCAAAAGGC

Variants of B1 are the subject of the data set. The data set can be described thus: fraction ligated after 30 min (ligated reads / total reads); higher = more ligase activity. The settings on record: with F1*sub RNA substrate (template-directed ligation), 42 °C. The method, boiled down:
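The ligase ribozyme variants were produced by PCR amplification of oligo-pool templates, T7 transcription and purification on gel. Their ligated and unligated forms were gel-separated, then reverse transcribed with barcoded primers before MiSeq sequencing. Core bases were filtered at a quality of ≥20, and fraction ligated per variant was ligated reads over total reads.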
As for C28G T35A, the fraction ligated came to 0.814. C28G T35C: the fraction ligated came out at 0.802.

With C28G T35G, the fraction ligated was 0.759. The value for A27G T49C was 0.601; that for A27G T49A was 0.721. In the case of A27G T49G, the fraction ligated turned out to be 0.774.

For C28A A57T, the fraction ligated amounted to 0.789. The value for C28A A57G was 0.8; that for C28A A57C was 0.776; that for C28A T29A was 0.798. The value for C28A T29G was 0.814; that for C28A T29C was 0.828. A27T A37T: the fraction ligated worked out at 0.808. The value for A27T A37C was 0.818; that for A27T A37G was 0.846; that for A27T T32C was 0.755. On to A27T T32A, for which the fraction ligated came out at 0.874. The value for A27T T32G was 0.838.

With A27T C40A, the fraction ligated came out at 0.856. For A27T C40G the value was 0.807; for A27T C40T, 0.847; for C28A C42G, 0.81. The value for C28A C42T was 0.823; that for C28A C42A was 0.803. A27G C40G: the fraction ligated was 0.813. For A27G C40T the value was 0.817. A27G C40A: the fraction ligated was found to be 0.79. The value for A27T G55A was 0.812; that for A27T G55T was 0.789; that for A27T G55C was 0.749.

Consider C28A A39T, for which the fraction ligated was determined as 0.794. For C28A A39C the value was 0.802; for C28A A39G, 0.798. As to A27T C42G, the fraction ligated was found to be 0.819. For A27T C42T the value was 0.822; for A27T C42A, 0.809. As to A27T G31C, the fraction ligated is 0.864. For the variant A27T G31T, the fraction ligated was 0.862. For the variant A27T G31A, the fraction ligated was 0.848. As for C28A T43G, the fraction ligated amounted to 0.812. Turning to C28A T43A, the fraction ligated was determined as 0.799. For C28A T43C the value was 0.795; for C28T A41C, 0.792. The value for C28T A41G was 0.789. C28T A41T: the fraction ligated worked out at 0.806. The value for A27T T29C was 0.807. With A27T T29A, the fraction ligated was 0.803. For A27T T29G, the fraction ligated is 0.805. The value for C28G T43C was 0.798. For C28G T43A the value was 0.807; for C28G T43G, 0.794. On to C28G A37G, for which the fraction ligated worked out at 0.809. For C28G A37T the value was 0.808; for C28G A37C, 0.766; for A27T T44C, 0.775. Take A27T T44A: the fraction ligated came out at 0.825.

In the case of A27T T44G, the fraction ligated was determined as 0.846. For C28A A56C the value was 0.718; for C28A A56T, 0.784; for C28A A56G, 0.681.

With A27G G38C, the fraction ligated was found to be 0.798. Turning to A27G G38A, the fraction ligated was 0.83. The value for A27G G38T was 0.824; that for A27G G46C was 0.795; that for A27G G46T was 0.796.

In the case of A27G G46A, the fraction ligated is 0.83. As to A27T A56T, the fraction ligated came to 0.792.

On to A27T A56C, for which the fraction ligated is 0.787. The value for A27T A56G was 0.791. The value for C28G T45C was 0.337. For C28G T45A the value was 0.558. As for C28G T45G, the fraction ligated stood at 0.259. Turning to C28A G50C, the fraction ligated turned out to be 0.163.

Regarding C28A G50T, the fraction ligated is 0.517. Turning to C28A G50A, the fraction ligated came out at 0.154. For the variant C28G T44G, the fraction ligated turned out to be 0.778. The value for C28G T44C was 0.778; that for C28G T44A was 0.791; that for C28A A41T was 0.827. For C28A A41C the value was 0.794.

As for C28A A41G, the fraction ligated came out at 0.779. Take C28G C40G: the fraction ligated is 0.812.

Take C28G C40T: the fraction ligated is 0.806.

The values are drawn from the supplement of paper PMC6755084.
